Data: paper doi:10.1101/2021.08.16.456495 (bioRxiv, 2021)

Legend:
[1] = molecular target: Transcobalamin (TC), B12-bound, as in the TC:TCblR complex (human, UniProt P20062); assay: crystal structure
[2] = molecular target: Transcobalamin receptor TCblR (CD320), crystallization construct, as in the TC:TCblR complex (human, UniProt Q9NPF0); assay: crystal structure
[3] = molecular target: B12-bound complex of transcobalamin (TC) and its receptor TCblR (Homo sapiens); assay: MST
Sequence of B12-bound complex of transcobalamin (TC) and its receptor TCblR (Homo sapiens) (P20062 19-427 R227Q, chain 1 of 2): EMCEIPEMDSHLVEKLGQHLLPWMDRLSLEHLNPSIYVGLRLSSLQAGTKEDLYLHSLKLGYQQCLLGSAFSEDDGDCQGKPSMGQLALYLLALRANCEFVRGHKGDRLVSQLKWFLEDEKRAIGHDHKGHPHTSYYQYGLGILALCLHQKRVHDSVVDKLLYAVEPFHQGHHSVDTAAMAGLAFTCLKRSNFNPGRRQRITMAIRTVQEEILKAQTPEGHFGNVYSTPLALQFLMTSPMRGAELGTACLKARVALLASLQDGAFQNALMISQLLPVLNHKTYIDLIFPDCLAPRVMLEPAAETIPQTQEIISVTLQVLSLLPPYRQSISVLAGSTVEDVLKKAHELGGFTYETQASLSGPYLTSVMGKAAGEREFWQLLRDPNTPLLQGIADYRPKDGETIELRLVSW
Sequence of B12-bound complex of transcobalamin (TC) and its receptor TCblR (Homo sapiens) (Q9NPF0 53-171, chain 2 of 2, further chain): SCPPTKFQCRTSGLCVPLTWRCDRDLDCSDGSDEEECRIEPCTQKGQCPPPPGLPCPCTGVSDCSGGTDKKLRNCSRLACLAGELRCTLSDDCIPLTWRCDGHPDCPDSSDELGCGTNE

Sequence of Transcobalamin (TC), B12-bound, as in the TC:TCblR complex (P20062 19-427, one chain of several): as the sequence (P20062 19-427 R227Q, chain 1 of 2) above, with Q209R counted along it
Sequence of Transcobalamin receptor TCblR (CD320), crystallization construct, as in the TC:TCblR complex (Q9NPF0 53-171, one chain of several): as the sequence (Q9NPF0 53-171, chain 2 of 2, further chain) above

| binding result [1] | binding result [2] | Kd [3] | Binder |
| --- | --- | --- | --- |
| binds | binds | 5.2 nM | Nanobody TCNB4 (VHH) VHH: QRQLVESGGGLVQPGGSLRLSCAASGFTPGIYDIGWFRQAPGKEREGVSCISSRGSSTNYADSVKGRFIISRDNVKNTVYLQMNSLEPEDTAVYYCAAIYQPSNGCVLRPEYSYWGKGTPVTVSS |
| binds |  | 87.4 nM | Nanobody TCNB26 (VHH) VHH: QVQLVESGGGLVQAGESLRLSCAASGRTFAMAWFRQAPGKEREFVAVRGWLGVTTYYADSVKGRFTISRDNAKNTLDLQMNSLKPEDTAVYYCAAGQYSSSLYDRETEYNYWGQGTRVTVSS |
| binds |  |  | Nanobody TCNB11 (VHH) VHH: QLQLVESGGGLVQAGGSLRLSCTASGRTGTMGWFRQGPGKEREFVASHKWVAGSTYYADSVKGRFTISRDNAKNTLYLQMNSLKSEDTAVYYCAASSQIFYGATTSIKDFNSWGKGTRVTVSS |
| binds |  | 12.8 nM | Nanobody TCNB34 (VHH) VHH: QWQLVESGGGLVQPGGSLRLSCAASGSTFSSYAMGWYRQAPGKECELVAAISRAGGSTNYADSVKGRFTISRDNAKNTVYLQMNSLKPEDTAVYYCNAAAEGETGSNWSLCEEYDYWGKGTRVTVSS |
